Holding throughout (assay): cell-based or functional assay
The target in experiment [1] is bovine Flk-1 (VEGFR-2), endogenous on bovine aortic endothelial cells (BAEC) (bovine).
The target in experiment [2] is T1, bovine Flt-1 (VEGFR-1), endogenous on bovine aortic endothelial cells (BAEC) (bovine).
T1 sequence: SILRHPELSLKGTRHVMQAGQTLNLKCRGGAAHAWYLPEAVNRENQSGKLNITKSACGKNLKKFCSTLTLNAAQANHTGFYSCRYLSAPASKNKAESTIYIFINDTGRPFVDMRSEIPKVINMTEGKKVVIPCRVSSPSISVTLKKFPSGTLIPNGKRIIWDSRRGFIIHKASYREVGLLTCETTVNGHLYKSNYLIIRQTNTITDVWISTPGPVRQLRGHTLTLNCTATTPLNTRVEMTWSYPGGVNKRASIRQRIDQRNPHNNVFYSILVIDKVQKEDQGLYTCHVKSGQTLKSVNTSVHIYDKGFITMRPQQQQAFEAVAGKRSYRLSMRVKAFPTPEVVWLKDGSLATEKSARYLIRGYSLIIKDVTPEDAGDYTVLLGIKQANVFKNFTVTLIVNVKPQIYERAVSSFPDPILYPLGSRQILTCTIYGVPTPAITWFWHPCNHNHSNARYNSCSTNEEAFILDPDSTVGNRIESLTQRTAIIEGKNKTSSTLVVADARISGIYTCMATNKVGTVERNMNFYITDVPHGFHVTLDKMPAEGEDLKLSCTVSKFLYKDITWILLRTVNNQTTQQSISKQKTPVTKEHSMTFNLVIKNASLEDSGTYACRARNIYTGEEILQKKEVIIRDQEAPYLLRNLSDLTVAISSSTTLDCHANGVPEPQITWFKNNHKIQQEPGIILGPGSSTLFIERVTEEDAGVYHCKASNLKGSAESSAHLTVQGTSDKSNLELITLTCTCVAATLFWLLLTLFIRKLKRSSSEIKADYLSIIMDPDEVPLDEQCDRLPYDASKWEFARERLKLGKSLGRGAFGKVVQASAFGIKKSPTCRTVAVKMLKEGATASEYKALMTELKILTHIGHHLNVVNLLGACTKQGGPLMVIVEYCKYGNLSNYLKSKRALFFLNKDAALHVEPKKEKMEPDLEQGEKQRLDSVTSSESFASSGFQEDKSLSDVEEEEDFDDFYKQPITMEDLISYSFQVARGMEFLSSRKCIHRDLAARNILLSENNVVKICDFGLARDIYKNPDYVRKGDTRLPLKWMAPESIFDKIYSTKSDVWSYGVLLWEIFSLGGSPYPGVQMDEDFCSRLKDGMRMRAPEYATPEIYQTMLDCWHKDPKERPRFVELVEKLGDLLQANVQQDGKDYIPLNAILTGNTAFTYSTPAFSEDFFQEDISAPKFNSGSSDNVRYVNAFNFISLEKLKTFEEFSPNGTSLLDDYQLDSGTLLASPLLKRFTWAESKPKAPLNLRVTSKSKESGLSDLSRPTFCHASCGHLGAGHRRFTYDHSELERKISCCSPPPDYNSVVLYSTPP

The target is the same in experiment [3]. The source holds these as a separate data set.

The record followed here is patent US20030186920A1.

In experiment [1], “human recombinant vascular growth factor, VEGF165 (PeproTech Inc.) (from UniProt P15692 27-191) (ligand)” gave a BAEC migration (modified Boyden chamber, 5 h), VEGF 2.5x10^-10 M (% increase over PBS-stimulated cells) of 83; a BAEC migration (modified Boyden chamber, 5 h), VEGF 10^-9 M (% increase over PBS-stimulated cells) of 130; a BAEC migration (modified Boyden chamber, 5 h), VEGF 10^-10 M (% increase over PBS-stimulated cells) of 46; a BAEC proliferation (cell count at 72 h), VEGF 2.5x10^-10 M (% increase over DMEM/1% FBS) of 219. Moreover, in experiment [1], the BAEC proliferation (cell count at 72 h), VEGF 10^-10 M (% increase over DMEM/1% FBS) came out at 183; the BAEC proliferation (cell count at 72 h), VEGF 10^-11 M (% increase over DMEM/1% FBS) is 62; the Flk-1 phosphorylation in BAEC stimulated with VEGF (10^-9 M), anti-phosphotyrosine Western blot of immunoprecipitated receptor (fold over PBS-treated cells) was 13.2; the PAF synthesis by BAEC (3H-acetate incorporation, 15 min), VEGF 10^-8 M (fold over PBS-treated cells) was found to be 35.9. Moreover, in experiment [1], the PAF synthesis by BAEC (3H-acetate incorporation, 15 min), VEGF 10^-9 M (fold over PBS-treated cells) was 20.4 and the PAF synthesis by BAEC (3H-acetate incorporation, 15 min), VEGF 10^-10 M (fold over PBS-treated cells) was found to be 7.2. The Flt-1 phosphorylation in BAEC stimulated with VEGF (10^-9 M), anti-phosphotyrosine Western blot of immunoprecipitated receptor (fold over PBS-treated cells) in experiment [2] is 1.5.

B1: human placenta growth factor, PlGF152 (R & D Systems) (ligand, UniProt P49763-3 19-170, looked up)
chain: LPAVPPQQWALSAGNGSSEVEVVPFQEVWGRSYCRALERLVDVVSEYPSEVEHMFSPSCVSLLRCTGCCGDENLHCVPVETANVTMQLLKIRSGDRPSYVELTFSQHVRCECRPLREKMKPERRRPKGRGKRRREKQRPTDCHLCGDAVPRR
In turn, B1 came in with a PAF synthesis by BAEC (3H-acetate incorporation, 15 min), PlGF 10^-8 M (% increase over PBS-treated cells) in experiment [3] of 67.
